# Assay results: US20110177501
# Columns and labels:
# [1] = tested on: AddAB helicase-nuclease (nuclease-deficient AddA D1172A, AddB D961A) AddA D1172A, AddB D961A (Bacillus subtilis); conditions: unwinding monitored with IDCC-SSB at low ionic strength (20 mM NaCl), 2 mM MgCl2, ATP, 37 C; weaker at 200 mM NaCl
# [2] = target: 6-IATR-E. coli SSB (W88C) W88C (mature protein numbering as printed) (Escherichia coli) (UniProt P0AGE0); conditions: data not shown
Substance,activity (bp s-1 per binding site) [1],activity (fold fluorescence (+/- DNA)) [2]
EcoRI-linearized pBR322,1000,–
poly-dT,–,4.5
